In the supplement of paper PMC10126150:
± gives the standard deviation of the averaged measurements.

System: ATP
Assay: switch fluorescence ratio, 500 uM ATP over buffer (Cy3 cluster intensity, sum of 5 cycles each) (fold (ratio)); higher = stronger signal-on switching upon ATP binding; sequences stand for … in TCGTCGGCAGCGTCAGATGTGTATAAGAGACAGTTTTTTTTTTTTTTTTTTTTTTTTT…TC
Details: aptamer strand: ATP DNA aptamer (quencher-CACCTGGGGGAGTATTGCGGAGGAAGG + anchor), 100 nM annealed; ATP concentration: 500 uM
Summary of the method: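 Clusters with intensities outside 100-1000 RFU were excluded. The remaining Cy3-labelled switching-strand clusters on a modified Illumina MiSeq flow-cell had been annealed to 100 nM quencher-labelled ATP aptamer and imaged in selection buffer, then after 15 min with 500 uM ATP at 22 °C, for five cycles separated by NaOH stripping and re-annealing. The fluorescence ratio, averaged per switch-domain sequence, is each cluster's summed target-cycle Cy3 intensity over its summed buffer-cycle Cy3 intensity.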
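Note: ATP exposure 15 min at 22 °C before imaging.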

Row | Sequence | switch fluorescence ratio
1 | TGTTTATGTT | 0.9975 ± 0.0064
2 | TGTTTCGGAA | 1.02 ± 0.038
3 | TGTTTCTCGA | 0.9619 ± 0.0041
4 | TGTTTCTCGT | 1.01 ± 0.015
5 | TGTTTGAAGT | 0.989 ± 0.023
6 | TGTTTGGAGG | 0.985 ± 0.022
7 | TGTTTGGTGG | 0.968 ± 0.026
8 | TGTTTGTCTT | 1 ± 0.069
9 | TGTTTGTGTA | 1.03 ± 0.022
10 | TGTTTGTTGT | 1.03 ± 0.063
11 | TGTTTTAATG | 0.988 ± 0.011
12 | TGTTTTCAGT | 0.975 ± 0.02
13 | TGTTTTCTAG | 0.99 ± 0.022
14 | TGTTTTGGGT | 0.985 ± 0.039
15 | TGTTTTGTTG | 0.99 ± 0.016
16 | TGTTTTTATA | 1.005 ± 0.0091
17 | TGTTTTTGAG | 0.9888 ± 0.0034
18 | TGTTTTTGTA | 1.07 ± 0.13
19 | TTAAAAAAGG | 1.01 ± 0.087
20 | TTAAAAAGAT | 1.04 ± 0.051
21 | TTAAAAAGGA | 0.986 ± 0.016
22 | TTAAAAAGGT | 1 ± 0.021
23 | TTAAAAATCA | 0.984 ± 0.025
24 | TTAAAAATGA | 1.02 ± 0.021
25 | TTAAAAATGC | 1.02 ± 0.011

Row | Sequence | switch fluorescence ratio
26 | TTAAAAGAGA | 1.04 ± 0.0028
27 | TTAAAAGCAG | 1.016 ± 0.0045
28 | TTAAAAGCTT | 1.05 ± 0.024
29 | TTAAAAGGAA | 1.004 ± 0.0034
30 | TTAAAAGGTT | 1.01 ± 0.029
31 | TTAAAATGGG | 1.01 ± 0.043
32 | TTAAAATGTC | 0.992 ± 0.014
33 | TTAAACAAGG | 1.01 ± 0.012
34 | TTAAAGAATT | 1.003 ± 0.0084
35 | TTAAAGACGG | 1.06 ± 0.11
36 | TTAAAGAGAA | 1 ± 0.013
37 | TTAAAGATAT | 1.23 ± 0.32
38 | TTAAAGCAGT | 1.56 ± 0.47
39 | TTAAAGCTTA | 1.02 ± 0.04
40 | TTAAAGGGCG | 0.976 ± 0.046
41 | TTAAAGTCGT | 1.01 ± 0.026
42 | TTAAAGTGCC | 1.01 ± 0.0072
43 | TTAAATAGCG | 0.982 ± 0.036
44 | TTAAATTTCG | 1.003 ± 0.0035
45 | TTAACACTCC | 1.2 ± 0.02
46 | TTAACATGTG | 0.9593 ± 0.0034
47 | TTAACATGTT | 0.996 ± 0.022
48 | TTAACATTAC | 1.38 ± 0.11
49 | TTAACCGGGA | 1.02 ± 0.059
50 | TTAACTGCTT | 0.9894 ± 0.0088

Row | Sequence | switch fluorescence ratio
51 | TTAAGAACGG | 1.03 ± 0.075
52 | TTAAGAAG | 0.996 ± 0.015
53 | TTAAGAATTT | 0.991 ± 0.031
54 | TTAAGACTGT | 1.01 ± 0.037
55 | TTAAGACTTG | 1 ± 0.012
56 | TTAAGATGGG | 0.996 ± 0.025
57 | TTAAGCACTT | 1.19 ± 0.062
58 | TTAAGCCAGG | 1.16 ± 0.14
59 | TTAAGCCTGT | 0.969 ± 0.021
60 | TTAAGCGTAG | 1.01 ± 0.013
61 | TTAAGCTAAT | 1.42 ± 0.5
62 | TTAAGCTCGC | 0.986 ± 0.045
63 | TTAAGCTCGG | 0.989 ± 0.037
64 | TTAAGCTGGT | 0.985 ± 0.022
65 | TTAAGCTTGA | 1.015 ± 0.0062
66 | TTAAGGAGTG | 0.95 ± 0.0099
67 | TTAAGGGAAC | 0.9966 ± 0.0052
68 | TTAAGGGAGG | 0.992 ± 0.03
69 | TTAAGGGCAG | 1.01 ± 0.03
70 | TTAAGGGCCA | 0.9709 ± 0.0035
71 | TTAAGGGGA | 1.06 ± 0.11
72 | TTAAGGGGTT | 1.03 ± 0.044
73 | TTAAGGGTTG | 1.02 ± 0.019
74 | TTAAGTACGA | 1.27 ± 0.041
75 | TTAAGTGCCC | 1 ± 0.021

Row | Sequence | switch fluorescence ratio
76 | TTAAGTTCTT | 0.996 ± 0.019
77 | TTAAGTTGGT | 0.997 ± 0.045
78 | TTAATAAATC | 0.996 ± 0.021
79 | TTAATAAATG | 1 ± 0.015
80 | TTAATAGTTG | 0.97177 ± 0.00065
81 | TTAATATCCT | 1.06 ± 0.026
82 | TTAATCAGGT | 1.01 ± 0.016
83 | TTAATCCAGT | 1.02 ± 0.035
84 | TTAATCGATG | 1 ± 0.019
85 | TTAATGCAGG | 1.006 ± 0.006
86 | TTAATGCTTT | 1.13 ± 0.23
87 | TTAATGGTAT | 1.02 ± 0.021
88 | TTAATGTTTG | 0.997 ± 0.042
89 | TTAATTAACC | 1.13 ± 0.098
90 | TTAATTAATA | 0.985 ± 0.013
91 | TTAATTAATG | 1.05 ± 0.089
92 | TTAATTACGG | 1.01 ± 0.017
93 | TTAATTAGGT | 1.02 ± 0.071
94 | TTAATTCCAG | 1.01 ± 0.029
95 | TTAATTGTTT | 0.989 ± 0.018
96 | TTAATTTATG | 0.976 ± 0.035
97 | TTAATTTTCC | 1.46 ± 0.49
98 | TTACAACGTA | 1 ± 0.013
99 | TTACAAGGAC | 1.049 ± 0.0089
100 | TTACACTTGT | 1 ± 0.032
